Test results: publication PMC5789076, “Molecular basis for the specific and multivariant recognitions of RNA substrates by human hnRNP A2/B1”

Experiments:
Test in all cases: ITC; ITC: 10 mM HEPES pH 8.0, 50 mM KCl, 1 mM EDTA, 1 mM BME, 25 C (protein into RNA); EMSA: 10 mM HEPES pH 8.0, 50 mM KCl, 1 mM EDTA, 5 mM BME, room temperature 30
hnRNP A2/B1 RRM1-RRM2 = hnRNP A2/B1 RRM1-RRM2 (human, UniProt P22626 12-195); settings: protein: recombinant; tags: N-terminal His6-SUMO removed by Ulp1; single strand
[1] = molecular target: hnRNP A2/B1 RRMs + RGG box (human, UniProt P22626 1-249); settings: protein: recombinant; tags: N-terminal His6-SUMO removed by Ulp1; single strand
[2] = molecular target: hnRNP A2/B1 (12-195) E183A (human, UniProt P22626 12-195, E183A); settings: protein: recombinant; tags: His6-SUMO removed; single strand
[3] = molecular target: hnRNP A2/B1 (12-195) D49A (human, UniProt P22626 12-195, D49A); settings: protein: recombinant; tags: His6-SUMO removed; single strand
[4] = molecular target: hnRNP A2/B1 (12-195) K113A (human, UniProt P22626 12-195, K113A); settings: protein: recombinant; tags: His6-SUMO removed; single strand
[5] = molecular target: hnRNP A2/B1 (12-195) F66A (human, UniProt P22626 12-195, F66A); settings: protein: recombinant; tags: His6-SUMO removed; single strand
[6] = molecular target: hnRNP A2/B1 (12-195) F157A (human, UniProt P22626 12-195, F157A); settings: protein: recombinant; tags: His6-SUMO removed; single strand
[7] = molecular target: hnRNP A2/B1 (12-195) E92A (human, UniProt P22626 12-195, E92A); settings: protein: recombinant; tags: His6-SUMO removed; single strand
[8] = molecular target: hnRNP A2/B1 (12-195) K120A (human, UniProt P22626 12-195, K120A); settings: protein: recombinant; tags: His6-SUMO removed; single strand
hnRNP A2/B1 full-length = hnRNP A2/B1 full-length (human, UniProt P22626 1-353); settings: protein: recombinant; tags: prepared with His6(-SUMO) tag or untagged; single strand
[9] = molecular target: hnRNP A2/B1 (12-195) Q19A (human, UniProt P22626 12-195, Q19A); settings: protein: recombinant; tags: His6-SUMO removed; single strand
[10] = molecular target: hnRNP A2/B1 (12-195) F24A (human, UniProt P22626 12-195, F24A); settings: protein: recombinant; tags: His6-SUMO removed; single strand
[11] = molecular target: hnRNP A2/B1 (12-195) H108A (human, UniProt P22626 12-195, H108A); settings: protein: recombinant; tags: His6-SUMO removed; single strand
[12] = molecular target: hnRNP A2/B1 (12-195) F115A (human, UniProt P22626 12-195, F115A); settings: protein: recombinant; tags: His6-SUMO removed; single strand
Chain of hnRNP A2/B1 (12-195) F115A (P22626 12-195 F115A): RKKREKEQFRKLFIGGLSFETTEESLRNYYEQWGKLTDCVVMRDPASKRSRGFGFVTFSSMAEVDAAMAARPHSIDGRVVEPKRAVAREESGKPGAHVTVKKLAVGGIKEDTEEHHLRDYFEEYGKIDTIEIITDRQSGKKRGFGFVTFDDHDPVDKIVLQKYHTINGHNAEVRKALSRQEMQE

Chain of hnRNP A2/B1 RRM1-RRM2 (P22626 12-195): as the sequence (P22626 12-195 F115A) above, with A104F counted along it
Chain of hnRNP A2/B1 RRMs + RGG box (P22626 1-249): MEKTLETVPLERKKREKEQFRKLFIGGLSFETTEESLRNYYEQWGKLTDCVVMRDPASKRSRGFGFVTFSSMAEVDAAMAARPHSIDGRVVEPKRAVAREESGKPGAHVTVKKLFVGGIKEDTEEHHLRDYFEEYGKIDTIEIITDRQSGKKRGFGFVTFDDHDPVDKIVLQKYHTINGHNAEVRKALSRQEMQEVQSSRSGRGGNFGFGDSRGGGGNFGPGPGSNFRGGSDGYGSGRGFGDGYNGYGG
Chain of hnRNP A2/B1 full-length (P22626 whole entry): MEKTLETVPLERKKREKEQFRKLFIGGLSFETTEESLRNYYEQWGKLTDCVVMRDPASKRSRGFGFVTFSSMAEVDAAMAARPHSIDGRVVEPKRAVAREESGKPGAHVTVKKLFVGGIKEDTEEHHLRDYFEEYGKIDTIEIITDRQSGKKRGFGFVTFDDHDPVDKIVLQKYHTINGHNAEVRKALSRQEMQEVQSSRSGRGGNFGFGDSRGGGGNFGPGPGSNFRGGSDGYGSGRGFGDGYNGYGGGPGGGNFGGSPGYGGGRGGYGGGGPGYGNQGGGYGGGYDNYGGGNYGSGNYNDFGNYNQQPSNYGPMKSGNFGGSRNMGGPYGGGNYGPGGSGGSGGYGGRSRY
Chain of hnRNP A2/B1 (12-195) F157A (P22626 12-195 F157A): as the sequence (P22626 12-195 F115A) above, with A104F, F146A counted along it
Chain of hnRNP A2/B1 (12-195) K113A (P22626 12-195 K113A): as the sequence (P22626 12-195 F115A) above, with K102A, A104F counted along it
Chain of hnRNP A2/B1 (12-195) Q19A (P22626 12-195 Q19A): as the sequence (P22626 12-195 F115A) above, with Q8A, A104F counted along it
Chain of hnRNP A2/B1 (12-195) K120A (P22626 12-195 K120A): as the sequence (P22626 12-195 F115A) above, with A104F, K109A counted along it
Chain of hnRNP A2/B1 (12-195) F24A (P22626 12-195 F24A): as the sequence (P22626 12-195 F115A) above, with F13A, A104F counted along it
Chain of hnRNP A2/B1 (12-195) F66A (P22626 12-195 F66A): as the sequence (P22626 12-195 F115A) above, with F55A, A104F counted along it
Chain of hnRNP A2/B1 (12-195) D49A (P22626 12-195 D49A): as the sequence (P22626 12-195 F115A) above, with D38A, A104F counted along it
Chain of hnRNP A2/B1 (12-195) E183A (P22626 12-195 E183A): as the sequence (P22626 12-195 F115A) above, with A104F, E172A counted along it
Chain of hnRNP A2/B1 (12-195) E92A (P22626 12-195 E92A): as the sequence (P22626 12-195 F115A) above, with E81A, A104F counted along it
Chain of hnRNP A2/B1 (12-195) H108A (P22626 12-195 H108A): as the sequence (P22626 12-195 F115A) above, with H97A, A104F counted along it

| Binder | Kd (hnRNP A2/B1 RRM1-RRM2) | other results |
| --- | --- | --- |
| AGGACUGC (ssRNA, m6A at position 4) [8mer-m6A] | 461 ± 47.4 nM | Kd [1]: 505 ± 44.2 nM |
| AGGACUGC (ssRNA) [8mer] | 276 ± 27.5 nM | Kd [1]: 465 ± 53.2 nM |
| AAGGACUACC (ssRNA) [G8C] | 292 ± 44.2 nM |  |
| AAGGACCAGC (ssRNA) [U6C] | 184 ± 16.3 nM |  |
| AUGGACUAGC (ssRNA) [A1U] | 532 ± 66.7 nM |  |
| ACGGACUAGC (ssRNA) [A1C] | 662 ± 54.3 nM |  |
| AAGGACUAUC (ssRNA) [G8U] | 272 ± 30.7 nM |  |
| AAGAACUAGC (ssRNA) [G3A] | 244 ± 25.3 nM |  |
| AAUGACUAGC (ssRNA) [G2U] | 581 ± 58.1 nM |  |
| AAGGACUAGC (ssRNA) [10mer] | 115 ± 11.5 nM | Kd [2]: 290 ± 47.8 nM; Kd [3]: 562 ± 69.4 nM; Kd [1]: 26.5 ± 1.8 nM; Kd [4]: 813 ± 1.17 nM; Kd [5]: 763 ± 10.2 nM; Kd [6]: 535 ± 97.1 nM; Kd [7]: 752 ± 85.5 nM; Kd [8]: 413 ± 50.5 nM; Kd (hnRNP A2/B1 full-length): 103 ± 8.93 nM; Kd [9]: 440 ± 42 nM; Kd [10]: 457 ± 35.5 nM; Kd [11]: 167 ± 19.2 nM; Kd [12]: 781 ± 87.7 nM |
| AAGGACUAAC (ssRNA) [G8A] | 107 ± 16.2 nM |  |
| AAGGACUGGC (ssRNA) [A7G] | 108 ± 11.5 nM |  |
| AAGGACAAGC (ssRNA) [U6A] | 204 ± 19.9 nM |  |
| AAAGACUAGC (ssRNA) [G2A] | 316 ± 37 nM |  |
| AAGGACUAGC (ssRNA, m6A at position 5) [10mer-m6A] | 1320 ± 143 nM | Kd [1]: 176 ± 25.3 nM; Kd (hnRNP A2/B1 full-length): 172 ± 25.6 nM |
| AACGACUAGC (ssRNA) [G2C] | 699 ± 88.5 nM |  |
| AAGCACUAGC (ssRNA) [G3C] | 952.4 ± 1.14 nM |  |
